Experiment: yeast display, Sf9 membrane polyspecificity reagent, FACS + sequencing; frameworks hold sequencing errors
In short: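 Polyreactivity labels are assigned by the sorting gate from which each nanobody was recovered. The gates were low and high (top ~1%), set on anti-HA fluorescence for expression and streptavidin fluorescence for reagent binding. Before sorting, galactose-induced (36–48 hours) yeast display cells were stained for 1 hour at 4 °C with 10% biotinylated, detergent-solubilized Sf9 membrane reagent.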

QVQLVESGGGLVQAGGSLRLSCAASGSTFTANAMGWYRQAPGTERELVAAISRSGGSTYYADSVKGRFTISRDNAKYTVYLQLNSLKPEDTAVYYCAAECPLFSPPDGEDYWGQGTLVTVSS
polyreactivity (PSR sort gate): low polyreactivity

QVQLVESGGGLVQAGGSLRLSCAASGSTFTAYAMGWYRHAPGKERELVAGITGNGGSTRYADSVKGRFTISRDNAKNTVYVQMNSLKPEDTAFYYCAARWTRQRYRTSYYSWGQGTQVTVSS
polyreactivity (PSR sort gate): high polyreactivity

QVQLVESGGGLVQAGGSLRLSCAASGSTFTAYVMGWYRQAPGKERELVAAISSSGGRTYYADSVKGRFTISRDNAKNTVYLQMNSLKPEDTAVYYCAARSGPLAYDYWGQGTQVTVSS
polyreactivity (PSR sort gate): high polyreactivity

QVQLVESGGGLVQAGGSLRLSCAASGSTFTDNAMGWYRQAPGKETELVAAINGSGDITYYADSVKGRFTISRDYAKNTVYLQMKSLKPEDTAVYYCATRTQYKTWYGAYYYWGQGTQVTVSS
polyreactivity (PSR sort gate): low polyreactivity

QVQLVESGGGLVQAGGSLRLSCAASGSTFTDYAMGWYRQAPGKERELVAAIRFSGGSTYYADSVKGRFTISRDNAKNTVYLQMNSLKPEDTAVYYCAAGGYPWLDSWGQGTQVTVSS
polyreactivity (PSR sort gate): low polyreactivity

QVQLVESGGGLVQAGGSLRLSCAASGSTFTDYDMGWYRPAPGKERELVAAISSGGSTYYADSVKGRFTISRDNAKNTVYLQMNSLKPEDTAVYYCAAVLGVWGGVGSEGDYWGQGTQVTVSS
polyreactivity (PSR sort gate): low polyreactivity

QVQLVESGGGLVQAGGSLRLSCAASGSTFTFNAMGWYRQAPGKERELVAAITTSAGSTYYADSVKGRFTISRDNAKNTVYLQMNSLKPEDTAVYYCAARYVPPWGRRYYYWGQGTQVTVSS
polyreactivity (PSR sort gate): high polyreactivity

QVQLVESGGGLVQAGGSLRLSCAASGSTFTFYFMGWYRQAPGKERELVAAITASGGSTYYADSVKGRFTISRDNAKNTVYLQMNSEKPEDTAVYYCAARPTYYYSRTYDYWGQGTQVTVSS
polyreactivity (PSR sort gate): low polyreactivity

QVQLVESGGGLVQAGGSLRLSCAASGSTFTGNAMGWYRQAPGKERELVASINGSSGSTYYADSVKGRFTISRDNAKNTVYFQMNSLKPEDTAVYYCAKDSFLHFPRVGWVGLEYWGQGTQVTVSS
polyreactivity (PSR sort gate): low polyreactivity

QVQLVESGGGLVQAGGSLRLSCAASGSTFTGNAMGWYRQAPGKERELVASIRRIGSPYYADSVKGRFTISRDNAKNTVDLQMISLKPEDTAVFYCAAAVKIRTPYQYGYWGQGTQVTVSS
polyreactivity (PSR sort gate): high polyreactivity

QVQLVESGGGLVQAGGSLRLSCAASGSTFTGYAMGWYRPAPGKERELVAAISRSVGRTYYADSVKGRFTISRDNAKNTVYLQMNSLKPEDTAVYYCAADVYLTGSRNYYWGQGTQVTVSS
polyreactivity (PSR sort gate): high polyreactivity

QVQLVESGGGLVQAGGSLRLSCAASGSTFTGYAMGWYRQAPGKEREFVATITKRGGRTYYADSVKGRFTISRDNAKNTVYLQMNSLKPEDTAVYYCARDQGKLVVPYDYWGQGTQVTVSS
polyreactivity (PSR sort gate): high polyreactivity

QVQLVESGGGLVQAGGSLRLSCAASGSTFTGYAMGWYRQAPGKERELVASISYSGGSTYYADSVKGRFTISRDNAKNTVYLQMNSLKPEDTAVYYCNALQQYALSRYYWGQGTQVTVSS
polyreactivity (PSR sort gate): high polyreactivity

QVQLVESGGGLVQAGGSLRLSCAASGSTFTGYAMGWYRQAPGKEREMVAAISSDGITKYADSVKGRFTISRDNAKYTVYLQMNSLKQEDTAVYYCYAPRGSRRSYRRTEYYYWGQGTQVTVSS
polyreactivity (PSR sort gate): high polyreactivity

QVQLVESGGGLVQAGGSLRLSCAASGSTFTGYAMGWYRQAPGTERELVATINSGVSTYADSVKGRFTISRDNAKNTVYLQMNSLKPEDTAVYYCAADGLYYYQSGWIDAGYYTNGYWGQGTQVTVSS
polyreactivity (PSR sort gate): low polyreactivity

QVQLVESGGGLVQAGGSLRLSCAASGSTFTINVMGWYRQAPGKERELVAAINGGGRTNYADSVKGRFTISRDNAKNTVYLQMNSLKPEDTAVYYCATRYSHNSGFDYWGQGTQVTVSS
polyreactivity (PSR sort gate): low polyreactivity

QVQLVESGGGLVQAGGSLRLSCAASGSTFTIYAMGWYRQAPGKEREFVAAIDEDDGSTYYADSVKGRFTISRDNAKKTVYLQMNSLKPEDTAVYYCNADDIWAYAFDYWGQGTQVTVSS
polyreactivity (PSR sort gate): low polyreactivity

QVQLVESGGGLVQAGGSLRLSCAASGSTFTIYAMGWYRQAPGKERELVAAISSGGGDTDYADSVKGRFTISRDNAKNTVYLQMNSLKPEDTAGYYCNAEGTSPRTGYDYCGQGTQVTVSS
polyreactivity (PSR sort gate): low polyreactivity

QVQLVESGGGLVQAGGSLRLSCAASGSTFTIYAMGWYRQAPGKERELVAAISSGGGDTDYADSVKGRFTISRDNAKNTVYLQMNSLKPEDTAVYYCNAEGTSPRTGYDYWGQGTQVTVSS
polyreactivity (PSR sort gate): low polyreactivity

QVQLVESGGGLVQAGGSLRLSCAASGSTFTKYAMGWYRQAPGKERELVAAITASGGNTYYADSVKGRFTISRDNAKKTVYLQMNSLKPEDTAVYYCAARQYRYKYDYWGQGTQVTVSS
polyreactivity (PSR sort gate): high polyreactivity

QVQLVESGGGLVQAGGSLRLSCAASGSTFTLNAMGWSRQAPGKERELVADITSGGGGTYYADSVKGRFTISRDNAKNTVYLQMNSLKPEDTAVYYCAKTYRPSYNPYISFGFDYWGQGTQVTVSS
polyreactivity (PSR sort gate): low polyreactivity

QVQLVESGGGLVQAGGSLRLSCAASGSTFTLNAMGWYRQAPGKERELVAAITSGGRTKYADSVKGRFTISRDNAKNTVYLQMNSLKPEDTAVYYCAATFAGGYGYWGQGTQVTVSS
polyreactivity (PSR sort gate): high polyreactivity

QVQLVESGGGLVQAGGSLRLSCAASGSTFTLNAMGWYRQAPGKERELVADISWSSGRTYYADSVKGRFTISRDNAKNTVYLQMNSLKPEDTAVYYCNKDDNSYGLNYWGQGTQVTVSS
polyreactivity (PSR sort gate): low polyreactivity

QVQLVESGGGLVQAGGSLRLSCAASGSTFTLYAMGWSRQAPGKERELVAAISRSGGRTYYADSVKGRFTISRDNAKNTVYLQMNSLKPEDTAVYYCNAPYKQDYDYWGQGTQVTVSS
polyreactivity (PSR sort gate): high polyreactivity

QVQLVESGGGLVQAGGSLRLSCAASGSTFTLYAMGWYRQAPGNERELVASITASDGSTSYADSVKGRFTISRDNAKNTVYLQMNSLKPEDTAVYYCAARYRVRGISYYYWGQGTQVTVSS
polyreactivity (PSR sort gate): low polyreactivity

QVQLVESGGGLVQAGGSLRLSCAASGSTFTNYAMGRYRQSAGKERELLAAINSGGSTHYADSVKGRFTISRDNANNTVYLQMYSLKPEDTAVYYCDADPSALVYYWRWLGYDYWGQGTQVTVSS
polyreactivity (PSR sort gate): high polyreactivity

QVQLVESGGGLVQAGGSLRLSCAASGSTFTNYAMGWYRQAPGKERELLARITYNVGRTYYADSVKGRFTISRDNAKNTVYLQMNSLKPEDTAVYYCAAGVGWRYRVRWYYSLGDYWGQGTQVTVSS
polyreactivity (PSR sort gate): high polyreactivity

QVQLVESGGGLVQAGGSLRLSCAASGSTFTNYAMGWYRQAPGKERELVAAITSVGSTYYADSVKGRFTISRDNAKNTVYLQMNSLKPEDTAVYYCNVVYRDQYNYWGQGTQVTVSS
polyreactivity (PSR sort gate): low polyreactivity

QVQLVESGGGLVQAGGSLRLSCAASGSTFTPNAMGWYRQAPGKERELVASISTTGGNTYYADSVKGRFTISRDNAKNTVYLQMNSLKPEDTADYYCNAVRSVYLYGYIYGVDYWGQGTQVTVSS
polyreactivity (PSR sort gate): low polyreactivity

QVQLVESGGGLVQAGGSLRLSCAASGSTFTPNARGSYRQAPGKERELVAAINYLGGSTYYADSVKGRFTISRDNAKNTVYVQMNSLKPEDTAVYYCARRQYFRGQRYDYWGQGTQVTVSS
polyreactivity (PSR sort gate): high polyreactivity

QVQLVESGGGLVQAGGSLRLSCAASGSTFTPYAMGWYRQAPGKERELVAAINSRGGSTYYADSVKGRFTISRDNAKNTVYLQMHSLKPEDSAVYYCAARTRRRTSAYEYWGQGTQVTVSS
polyreactivity (PSR sort gate): high polyreactivity

QVQLVESGGGLVQAGGSLRLSCAASGSTFTPYAMGWYRQAPGKERELVASITIGGSTYADSVKGRFTISRDNAKNTVYLQMNSLKPEDTAVYSCNADWNWYPFLYSRMDYWGQGTQVTVSS
polyreactivity (PSR sort gate): low polyreactivity

QVQLVESGGGLVQAGGSLRLSCAASGSTFTPYGMGWYRQAPGKERELVAAITVSGGRTYYADSVKGRFTISRDNAKNTVYLQMNSLKPEDTAVYYCAAVYLRGDGEYDSWGQGTQVTVSS
polyreactivity (PSR sort gate): low polyreactivity

QVQLVESGGGLVQAGGSLRLSCAASGSTFTQKAMGWYRQAPGKERELVAAISSSGTRTYYADSVKGRFTISRDNAKNTVYLQMNSLKPEDTAVYYCNARYRIGSWYEFGSWGQGTQVTVSS
polyreactivity (PSR sort gate): high polyreactivity

QVQLVESGGGLVQAGGSLRLSCAASGSTFTQYVMGWYRQAPGKERELVAAISDSGSTYYADSVKGRFTISRDNAKNTVYLQMNSLKPEDTAVYYCATDVLAWAPYDYWGQGTQVTVSS
polyreactivity (PSR sort gate): low polyreactivity

QVQLVESGGGLVQAGGSLRLSCAASGSTFTRNTMGWYKQAPGKEREMVAAISRRGGRTDYADSVKGRFTISRDNAKNSVYLQMNSLKPEDTAVYYCAADPITVDQNPRYGYWGQGTQVTVSS
polyreactivity (PSR sort gate): high polyreactivity

QVQLVESGGGLVQAGGSLRLSCAASGSTFTRYAMGWYRQAPGKERELVASISRSGGRTYYADSVKGRFTISRDNAKNTVYLQMNSLKPEDTAVYYCAKLYLVTKSLLEITGGKYDGDYWGQGTQVTVSS
polyreactivity (PSR sort gate): high polyreactivity

QVQLVESGGGLVQAGGSLRLSCAASGSTFTRYDMGSYRQAPGKERELVAAISKSGGSTYYADSVKGRFRISRDNAKNTVYLQMNSLKPEDTAVYYCNQLVEEDYWGQGTQVTVSS
polyreactivity (PSR sort gate): low polyreactivity

QVQLVESGGGLVQAGGSLRLSCAASGSTFTRYDMGWYRQAPGKERELVAAISKSGGSTYYADSVKGRFTISRDNAKNTVYLQMNSLKPEDTAVYYCARGSTKYHIYSLDYWGQGTQVTVSS
polyreactivity (PSR sort gate): low polyreactivity

QVQLVESGGGLVQAGGSLRLSCAASGSTFTSSAMGWYRQAPGKERELVAAISKSGGSTYYADSVKGRFTLSRDNAKNTVYLQMNSLKPEDTAVYYCAARYNVRSYSTSRFDYWGQGTQVTVSS
polyreactivity (PSR sort gate): low polyreactivity

QVQLVESGGGLVQAGGSLRLSCAASGSTFTSYAMGWYRQAPGKERELVAAINYSGGSTYYADSVKGRFTISRDNAKNTVYLQMNSLKPEDTAVYYCAADGYIRQYVTYYYWGQGTQVTVSS
polyreactivity (PSR sort gate): low polyreactivity

QVQLVESGGGLVQAGGSLRLSCAASGSTFTSYAMGWYRQAPGKERELVAGITSRGTSTYYADSVKGRFTISRDNAKNTVYLQMNSLKPEDTAVYYCARDPYQPKVSGRLFLRYDYWGQGTQVTVSS
polyreactivity (PSR sort gate): high polyreactivity

QVQLVESGGGLVQAGGSLRLSCAASGSTFTSYAMGWYRQAPGKERELVATISKISGSTYYADSVKGRFTISRDNAKNTVYLQMNSLKPEDTAVYYCAAKQGWVQSSILWYRAYGYWGQGTQVTVSS
polyreactivity (PSR sort gate): high polyreactivity
